Assay results: patent US20220412967A1, “METHOD FOR CAPTURING CANDIDATE SUBSTANCE THAT CAN BIND TO COMPLEX OF MR1 PROTEIN AND BETA2 MICROGLOBULIN PROTEIN, METHOD FOR PRODUCING CANDIDATE SUBSTANCE THAT CAN BIND TO COMPLEX OF MR1 PROTEIN AND BETA2 MICROGLOBULIN PROTEIN, AND METHOD FOR PRODUCING LIGAND CANDIDATE SUBSTANCE FOR MAIT CELL” (OSAKA UNIVERSITY, priority 2019, published 2022)
Each block holds one molecule with its values, some of them ahead of it.

How the values were obtained:
[1] = target: T1, complex of soluble mMR1A, soluble mβ2m and Ac6FP (Mus musculus, UniProt Q8HWB0); assay: Thermodynamic stability of the complex (Tycho NT.6, F350/F330, 37 to 95° C.); type: physicochemical; settings: for melting point (inflection point of curve) of the complex: FIG. 1B
T1 construct: made in house
Source text: When a MR1 protein, a β2 protein, and Ac6FP form a complex to form a normal folding, tryptophan in the protein can be measured at an absorbance of 330 nm. On the other hand, when the complex is heat treated and the complex is denatured, tryptophan in the protein is exposed by the thermal denaturation, and the tryptophan can be measured at an absorbance of 350 nm.
After mixing the soluble mMR1A and the soluble mβ2m obtained in Example 1 (1), Ac6FP (Cat. No.: 11.418, manufactured by Schircks Laboratories Co., Ltd.) was further added to the obtained mixed solution to form the complex in a buffer solution (reaction system of complex). The composition of the buffer was as follows: 100 mmol/l Tris-HCl (pH 8.1), 2 mmol/l EDTA (pH 8.1), 400 mmol/l L-Arginine, and 5 mol/1 Urea, and the pH was set to 8.1. In the reaction system of 250 ml of complex, the concentration of the soluble mMR1A was 30 μg/ml (total amount: 7.5 mg), the concentration of the soluble mβ2m was 30 μg/ml (total amount: 7.5 mg), and the concentration of Ac6FP was 8 μg/ml (total amount: 2 mg). The reaction temperature of the reaction system of the complex was set at 4° C., and the reaction time was set at 9 hours.
Sodium cyanoborohydride (NaBH3CN) was added to the obtained complex (0.01 mg/ml), so as to have a predetermined concentration (0, 0.005, 0.05, 0.5, or 5 mmol/1) and subjected to the reduction treatment at 4° C. for 5 minutes. Note that the pH in the reaction solution of the reduction reaction was set to about 7.2.
8 to 10 μl of a sample containing the complex after the reduction treatment was collected in a capillary and set to Tycho™ NT.6. The temperature was then increased to 37 to 95° C., and the thermodynamic stability of the complex was calculated from the melting point (an inflection point of curve).
FIGS. 1A and 1B are graphs of the thermodynamic stability of the complex. In FIGS. 1A and 1B, the horizontal axis indicates the temperature, and the vertical axis indicates the ratio of the absorbance at 350 nm (F350) to the absorbance at 330 nm (F330) (F350/F330). […]

[2] = target: T2, soluble murine MR1 protein isoform A (mouse, UniProt Q8HWB0 19-288); assay: refolding of E. coli proteins with the small-molecule ligand Ac6FP; complex then purified by anion exchange and gel filtration chromatography
T2 construct: also called soluble mMR1A; mMR1
Experimental: After the dialysis, the obtained sample was subjected to anion exchange chromatography under the purification condition 1 below to purify a crude purified product including the complex. After the start of the purification, the resultant was fractionated at 1 ml/fraction, and five fractions between 6 to 7 minutes from the start of purification were collected as fractions of the crude purified product.
Analytical instrument: AKTA pure25 (manufactured by GE Healthcare) Column: POROS™ HQ (manufactured by Applied Biosystems) [0108] […] 0 min: (A:B=100:0) [0111] 7.9 min: (A:B=50:50) Flow rate: 5 ml/min Fractionation volume: 1 ml/fraction
The obtained composition was then subjected to gel filtration chromatography under the purification condition 2 below to purify the complex from the crude purified product. After the start of the purification, the resultant was fractionated at 0.5 ml/fraction, and 4 fractions between 13 and 15 minutes from the start of purification were collected as a fraction containing the complex.

T2 sequence (Q8HWB0 19-288): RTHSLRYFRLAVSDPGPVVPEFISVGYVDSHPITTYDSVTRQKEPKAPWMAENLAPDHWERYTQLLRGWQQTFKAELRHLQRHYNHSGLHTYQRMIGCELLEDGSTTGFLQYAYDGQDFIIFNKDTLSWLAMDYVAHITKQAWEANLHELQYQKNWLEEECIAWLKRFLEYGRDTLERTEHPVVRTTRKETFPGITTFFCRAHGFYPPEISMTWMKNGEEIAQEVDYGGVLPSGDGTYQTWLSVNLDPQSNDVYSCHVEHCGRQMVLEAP

Molecule: complex: complex formed from soluble mMR1A (SEQ ID NO: 10), soluble mβ2m (SEQ ID NO: 14) and the ligand Ac6FP
melting point (inflection point of curve) of the complex ([1]; control not subjected to the reduction treatment (0 mmol/l NaBH3CN)): 72.2 °C
melting point of the complex versus control not subjected to the reduction treatment ([1]; reduction treatment with NaBH3CN (0.005 to 5 mmol/l), FIG. 1A): increased
melting point (inflection point of curve) of the complex ([1]; treated with 5 mmol/l of sodium cyanoborohydride, 4° C., 5 minutes, pH about 7.2): 73.9 °C

binding result [2]: binds
B1: soluble mouse β2 microglobulin protein (other)
b2m: IQKTPQIQVYSRHPPENGKPNILNCYVTQFHPPHIEIQMLKNGKKIPKVEMSDMSFSKDWSFYILAHTEFTPTETDTYACRVKHASMAEPKTVYWDRDM
notes: Recombinant from Escherichia coli; also called soluble mβ2m
